Reference: the supplement of paper PMC5998384

What was measured:
[1] = tested on: HeLa Kyoto; experiment: solubility change mitosis vs G1/S (difference of NP-40 vs SDS log2 ratios) (log2 ratio difference); higher = more soluble in mitosis
[2] = tested on: HeLa Kyoto; experiment: thermal stability score vs G1/S (z-score of summed log2 fold changes over temperatures); higher = more thermally stable than in G1/S
[3] = tested on: HeLa Kyoto; experiment: solubility in G1/S (NP-40 vs SDS abundance) (log2 ratio); higher = more soluble; details: cell cycle stage: G1/S
[4] = tested on: HeLa Kyoto; experiment: melting temperature (median over replicates), in situ; higher = more thermally stable
[5] = cell cycle stage: early G1 (4.5 h after nocodazole release)
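For melting temperature (median over replicates), in situ in this document: HeLa Kyoto cells synchronized by double thymidine or nocodazole block, proteins quantified by TMT10plex mass spectrometry, three independent biological replicates.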
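For solubility change mitosis vs G1/S (difference of NP-40 vs SDS log2 ratios) in this document: synchronized HeLa Kyoto cells (double thymidine block for G1/S, nocodazole release for mitosis), protein amounts in NP-40 versus SDS lysates quantified by mass spectrometry, three biological replicates.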
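For solubility in G1/S (NP-40 vs SDS abundance) in this document: HeLa Kyoto cells arrested at G1/S by double thymidine block, proteins quantified by TMT10plex mass spectrometry in mild NP-40 versus SDS extracts, three biological replicates.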
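For thermal stability score vs G1/S (z-score of summed log2 fold changes over temperatures) in this document: synchronized HeLa Kyoto cells, proteins quantified by TMT10plex mass spectrometry, three biological replicates, mitosis taken 0.5 h after nocodazole release, G1/S directly after double thymidine block.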

Row | Sequence | solubility change mitosis (log2) [1] | thermal stability score [2, 5] | thermal stability score ([2]; cell cycle stage: mitosis) | solubility in G1/S (log2) [3] | melting temperature ([4]; cell cycle stage: G1/S) [°C] | melting temperature ([4]; cell cycle stage: mitosis) [°C]
1 | MAALGPSSQNVTEYVVRVPKNTTKKYNIMAFNAADKVNFATWNQARLERDLSNKKIYQEEEMPESGAGSEFNRKLREEARRKKYGIVLKEFRPEDQPWLLRVNGKSGRKFKGIKKGGVTENTSYYIFTQCPDGAFEAFPVHNWYNFTPLARHRTLTAEEAEEEWERRNKVLNHFSIMQQRRLKDQDQDEDEEEKEKRGRRKASELRIHDLEDDLEMSSDASDASGEEGGRVPKAKKKAPLAKGGRKKKKKKGSDDEAFEDSDDGDFEGQEVDYMSDGSSSSQEEPESKAKAPQQEEGPKGVDEQSDSSEESEEEKPPEEDKEEEEEKKAPTPQEKKRRKDSSEESDSSEESDIDSEASSALFMAKKKTPPKRERKPSGGSSRGNSRPGTPSAEGGSTSSTLRAAASKLEQGKRVSEMPAAKRLRLDTGPQSLSGKSTPQPPSGKTTPNSGDVQVTEDAVRRYLTRKPMTTKDLLKKFQTKKTGLSSEQTVNVLAQILKRLNPERKMINDKMHFSLKE [GTF2F1] | 0.126 | -0.52 | -1.74 | 0.237 | 52.7 | 53.3
2 | MAALTLRGVRELLKRVDLATVPRRHRYKKKWAATEPKFPAVRLALQNFDMTYSVQFGDLWPSIRVSLLSEQKYGALVNNFAAWDHVSAKLEQLSAKDFVNEAISHWELQSEGGQSAAPSPASWACSPNLRCFTFDRGDISRFPPARPGSLGVMEYYLMDAASLLPVLALGLQPGDIVLDLCAAPGGKTLALLQTGCCRNLAANDLSPSRIARLQKILHSYVPEEIRDGNQVRVTSWDGRKWGELEGDTYDRVLVDVPCTTDRHSLHEEENNIFKRSRKKERQILPVLQVQLLAAGLLATKPGGHVVYSTCSLSHLQNEYVVQGAIELLANQYSIQVQVEDLTHFRRVFMDTFCFFSSCQVGELVIPNLMANFGPMYFCKMRRLT [NSUN4] | 0.115 | 0.266 | 0.044 | -0.195 | 51.7 | 51.9
3 | MAALVVSGAAEQGGRDGPGRGRAPRGRVANQIPPEILKNPQLQAAIRVLPSNYNFEIPKTIWRIQQAQAKKVALQMPEGLLLFACTIVDILERFTEAEVMVMGDVTYGACCVDDFTARALGADFLVHYGHSCLIPMDTSAQDFRVLYVFVDIRIDTTHLLDSLRLTFPPATALALVSTIQFVSTLQAAAQELKAEYRVSVPQCKPLSPGEILGCTSPRLSKEVEAVVYLGDGRFHLESVMIANPNVPAYRYDPYSKVLSREHYDHQRMQAARQEAIATARSAKSWGLILGTLGRQGSPKILEHLESRLRALGLSFVRLLLSEIFPSKLSLLPEVDVWVQVACPRLSIDWGTAFPKPLLTPYEAAVALRDISWQQPYPMDFYAGSSLGPWTVNHGQDRRPHAPGRPARGKVQEGSARPPSAVACEDCSCRDEKVAPLAP [DPH1] | -0.202 | -0.776 | -1.19 | 0.145 | 53 | 53
4 | MAAMAPGGSGSGGGVNPFLSDSDEDDDEVAATEERRAVLRLGAGSGLDPGSAGSLSPQDPVALGSSARPGLPGEASAAAVALGGTGETPARLSIDAIAAQLLRDQYLLTALELHTELLESGRELPRLRDYFSNPGNFERQSGTPPGMGAPGVPGAAGVGGAGGREPSTASGGGQLNRAGSISTLDSLDFARYSDDGNRETDEKVAVLEFELRKAKETIQALRANLTKAAEHEVPLQERKNYKSSPEIQEPIKPLEKRALNFLVNEFLLKNNYKLTSITFSDENDDQDFELWDDVGLNIPKPPDLLQLYRDFGNHQVTGKDLVDVASGVEEDELEALTPIISNLPPTLETPQPAENSMLVQKLEDKISLLNSEKWSLMEQIRRLKSEMDFLKNEHFAIPAVCDSVQPPLDQLPHKDSEDSGQHPDVNSSDKGKNTDIHLSISDEADSTIPKENSPNSFPRREREGMPPSSLSSKKTVHFDKPNRKLSPAFHQALLSFCRMSADSRLGYEVSRIADSEKSVMLMLGRCLPHIVPNVLLAKREELIPLILCTACLHPEPKERDQLLHILFNLIKRPDDEQRQMILTGCVAFARHVGPTRVEAELLPQCWEQINHKYPERRLLVAESCGALAPYLPKEIRSSLVLSMLQQMLMEDKADLVREAVIKSLGIIMGYIDDPDKYHQGFELLLSALGDPSERVVSATHQVFLPAYAAWTTELGNLQSHLILTLLNKIEKLLREGEHGLDEHKLHMYLSALQSLIPSLFALVLQNAPFSSKAKLHGEVPQIEVTRFPRPMSPLQDVSTIIGSREQLAVLLQLYDYQLEQEGTTGWESLLWVVNQLLPQLIEIVGKINVTSTACVHEFSRFFWRLCRTFGKIFTNTKVKPQFQEILRLSEENIDSSAGNGVLTKATVPIYATGVLTCYIQEEDRKLLVGFLEDVMTLLSLSHAPLDSLKASFVELGANPAYHELLLTVLWYGVVHTSALVRCTAARMFELTLRGMSEALVDKRVAPALVTLSSDPEFSVRIATIPAFGTIMETVIQRELLERVKMQLASFLEDPQYQDQHSLHTEIIKTFGRVGPNAEPRFRDEFVIPHLHKLALVNNLQIVDSKRLDIATHLFEAYSALSCCFISEDLMVNHFLPGLRCLRTDMEHLSPEHEVILSSMIKECEQKVENKTVQEPQGSMSIAASLVSEDTKTKFLNKMGQLTTSGAMLANVFQRKK [KIAA1468] | -0.171 | -0.253 | -0.932 | -0.0233 | 50.8 | 51.1
5 | MAAPALRLCHIAFHVPAGQPLARNLQRLFGFQPLASREVDGWRQLALRSGDAVFLVNEGAGSGEPLYGLDPRHAVPSATNLCFDVADAGAATRELAALGCSVPVPPVRVRDAQGAATYAVVSSPAGILSLTLLERAGYRGPFLPGFRPVSSAPGPGWVSRVDHLTLACTPGSSPTLLRWFHDCLGFCHLPLSPGEDPELGLEMTAGFGLGGLRLTALQAQPGSIVPTLVLAESLPGATTRQDQVEQFLARHKGPGLQHVGLYTPNIVEATEGVATAGGQFLAPPGAYYQQPGKERQIRAAGHEPHLLARQGILLDGDKGKFLLQVFTKSLFTEDTFFLELIQRQGATGFGQGNIRALWQSVQEQSARSQEA [HPDL] | -0.0348 | 1.41 | 0.476 | 0.23 | 53.9 | 52.8
6 | MAAPCEGQAFAVGVEKNWGAVVRSPEGTPQKIRQLIDEGIAPEEGGVDAKDTSATSQSVNGSPQAEQPSLESTSKEAFFSRVETFSSLKWAGKPFELSPLVCAKYGWVTVECDMLKCSSCQAFLCASLQPAFDFDRYKQRCAELKKALCTAHEKFCFWPDSPSPDRFGMLPLDEPAILVSEFLDRFQSLCHLDLQLPSLRPEDLKTMCLTEDKISLLLHLLEDELDHRTDERKTTIKLGSDIQVHVTACILSVCGWACSSSLESMQLSLITCSQCMRKVGLWGFQQIESSMTDLDASFGLTSSPIPGLEGRPERLPLVPESPRRMMTRSQDATFSPGSEQAEKSPGPIVSRTRSWDSSSPVDRPEPEAASPTTRTRPVTRSMGTGDTPGLEVPSSPLRKAKRARLCSSSSSDTSSRSFFDPTSQHRDWCPWVNITLGKESRENGGTEPDASAPAEPGWKAVLTILLAHKQSSQPAETDSMSLSEKSRKVFRIFRQWESLCSC [ZC3HC1] | -0.163 | 0.508 | 1.84 | 0.00532 | 49.3 | 49.2
7 | MAAPDLSTNLQEEATCAICLDYFTDPVMTDCGHNFCRECIRRCWGQPEGPYACPECRELSPQRNLRPNRPLAKMAEMARRLHPPSPVPQGVCPAHREPLAAFCGDELRLLCAACERSGEHWAHRVRPLQDAAEDLKAKLEKSLEHLRKQMQDALLFQAQADETCVLWQKMVESQRQNVLGEFERLRRLLAEEEQQLLQRLEEEELEVLPRLREGAAHLGQQSAHLAELIAELEGRCQLPALGLLQDIKDALRRVQDVKLQPPEVVPMELRTVCRVPGLVETLRRFRGDVTLDPDTANPELILSEDRRSVQRGDLRQALPDSPERFDPGPCVLGQERFTSGRHYWEVEVGDRTSWALGVCRENVNRKEKGELSAGNGFWILVFLGSYYNSSERALAPLRDPPRRVGIFLDYEAGHLSFYSATDGSLLFIFPEIPFSGTLRPLFSPLSSSPTPMTICRPKGGSGDTLAPQ [TRIM11] | -0.192 | 0.605 | 0.584 | 0.185 | 50.8 | 49.4
8 | MAAPEGSGLGEDARLDQETAQWLRWDKNSLTLEAVKRLIAEGNKEELRKCFGARMEFGTAGLRAAMGPGISRMNDLTIIQTTQGFCRYLEKQFSDLKQKGIVISFDARAHPSSGGSSRRFARLAATTFISQGIPVYLFSDITPTPFVPFTVSHLKLCAGIMITASHNPKQDNGYKVYWDNGAQIISPHDKGISQAIEENLEPWPQAWDDSLIDSSPLLHNPSASINNDYFEDLKKYCFHRSVNRETKVKFVHTSVHGVGHSFVQSAFKAFDLVPPEAVPEQKDPDPEFPTVKYPNPEEGKGVLTLSFALADKTKARIVLANDPDADRLAVAEKQDSGEWRVFSGNELGALLGWWLFTSWKEKNQDRSALKDTYMLSSTVSSKILRAIALKEGFHFEETLTGFKWMGNRAKQLIDQGKTVLFAFEEAIGYMCCPFVLDKDGVSAAVISAELASFLATKNLSLSQQLKAIYVEYGYHITKASYFICHDQETIKKLFENLRNYDGKNNYPKACGKFEISAIRDLTTGYDDSQPDKKAVLPTSKSSQMITFTFANGGVATMRTSGTEPKIKYYAELCAPPGNSDPEQLKKELNELVSAIEEHFFQPQKYNLQPKAD [PGM2] | -0.112 | -0.0187 | -1.07 | 0.169 | 59.1 | 58.5
9 | MAAPKGSLWVRTQLGLPPLLLLTMALAGGSGTASAEAFDSVLGDTASCHRACQLTYPLHTYPKEEELYACQRGCRLFSICQFVDDGIDLNRTKLECESACTEAYSQSDEQYACHLGCQNQLPFAELRQEQLMSLMPKMHLLFPLTLVRSFWSDMMDSAQSFITSSWTFYLQADDGKIVIFQSKPEIQYAPHLEQEPTNLRESSLSKMSYLQMRNSQAHRNFLEDGESDGFLRCLSLNSGWILTTTLVLSVMVLLWICCATVATAVEQYVPSEKLSIYGDLEFMNEQKLNRYPASSLVVVRSKTEDHEEAGPLPTKVNLAHSEI [TMEM59] | 0.0194 | 0.0515 | -0.215 | 0.0662 | 54.8 | 53.1
10 | MAAPMTPAARPEDYEAALNAALADVPELARLLEIDPYLKPYAVDFQRRYKQFSQILKNIGENEGGIDKFSRGYESFGVHRCADGGLYCKEWAPGAEGVFLTGDFNGWNPFSYPYKKLDYGKWELYIPPKQNKSVLVPHGSKLKVVITSKSGEILYRISPWAKYVVREGDNVNYDWIHWDPEHSYEFKHSRPKKPRSLRIYESHVGISSHEGKVASYKHFTCNVLPRIKGLGYNCIQLMAIMEHAYYASFGYQITSFFAASSRYGTPEELQELVDTAHSMGIIVLLDVVHSHASKNSADGLNMFDGTDSCYFHSGPRGTHDLWDSRLFAYSSWEILRFLLSNIRWWLEEYRFDGFRFDGVTSMLYHHHGVGQGFSGDYSEYFGLQVDEDALTYLMLANHLVHTLCPDSITIAEDVSGMPALCSPISQGGGGFDYRLAMAIPDKWIQLLKEFKDEDWNMGDIVYTLTNRRYLEKCIAYAESHDQALVGDKSLAFWLMDAEMYTNMSVLTPFTPVIDRGIQLHKMIRLITHGLGGEGYLNFMGNEFGHPEWLDFPRKGNNESYHYARRQFHLTDDDLLRYKFLNNFDRDMNRLEERYGWLAAPQAYVSEKHEGNKIIAFERAGLLFIFNFHPSKSYTDYRVGTALPGKFKIVLDSDAAEYGGHQRLDHSTDFFSEAFEHNGRPYSLLVYIPSRVALILQNVDLPN [GBE1] | -0.104 | -0.0259 | 0.998 | -0.184 | 49.7 | 49.6
11 | MAAPQDVHVRICNQEIVKFDLEVKALIQDIRDCSGPLSALTELNTKVKEKFQQLRHRIQDLEQLAKEQDKESEKQLLLQEVENHKKQMLSNQASWRKANLTCKIAIDNLEKAELLQGGDLLRQRKTTKESLAQTSSTITESLMGISRMMAQQVQQSEEAMQSLVTSSRTILDANEEFKSMSGTIQLGRKLITKYNRRELTDKLLIFLALALFLATVLYIVKKRLFPFL [BNIP1] | -0.0998 | 1.09 | 0.444 | -0.186 | 52.3 | 51.7
